Measurements as given in the NTF2 design screens of Basanta et al. (2020).

assay: protease stability score; higher = more stable; yeast display proteolysis, trypsin and chymotrypsin;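 further: relative to predicted unfolded state with 0 unfolded-like and 1 meaning tenfold more protease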

Sequence	protease stability score
SEEHTIAEEAIKHLIEILETGDFRTLHRMIDPHVRFEYGDKHLHGREILIKWFEEHWEKLGVDKVEVHVKDIEIQGNKAIVIGDIVINGQRKDTVWHLIVINGRIKMIRIEEH	1.7
DELTEDLKHAMTIFLHMLITGDEHWIHDLLDPNTRLEFEGREFVGREDAREEWRKISEEIRVHHVEMKDIHVFDGVIIVDGRMDGEVNGRRTHLNVFFVFHKVNGKWLMRQHSLR	1.42
SEEDEVSERLAREYLHIWKTGDEDRLAKLLDPHTRFIYVIGDKELELIGRDKFAEFLRHLWEELGVNHFDVHDFKVYGEKVQLDTTEEYGDKNFRMHIDIVVIDGKVKFIRIKER	1.33
SEEEEFWKHIAKVMLDLVTTGNEDLFMKMADPNTKSEFNGRTVVGRERIAEILKKFKNITIIIHHIDIQGEKVRIHGRVLIGDKEIEDDWELVVVDGKIQRLHFEHV	1.29
EEEEESVQRAMERILHALQTGDWHTLSRMADPHVKLLVNGVELHGMEKIEEFLKKLLEELGVDKIDVRLHDFHTFNGVVHVDVRSHFNGRTHREEWVLLKVNGRWSLKEVRTE	1.44
DTEERLLHEMLRYLLEWFITGDEELFARLADPNTRTNVNGRHFHGREEMARLLEKWWRDFGVKHVHIEHTRVQGDYLHIDTRLHIGDKDLHVHFKLLVIDGRIRSLEIIIR	0.689
DDIEETFRHYLDQWIRDLRTGDEEALYRLADPNARHKINGQHLHGRELHDHEFNRIKNLKVDFVTRDIRIIGDKLIIHGEMIIRINGRQISIDTEIYLRKIDGRWFVEQVNVG	0.305
TEDEDRLTEMIEELLHALLTGDEKRKDELIDPHTKLDVNGRERHGMEEIKKNWRKLGVERIDLRVRERRIVNGVAHIRGDLHVGDKSMEVHIVFVKVDGRWIVHSFFIH	1.31
SEEETRLEKYLRILLEMWKTGNEEWMFKYADPDARLQVGDKEFHGREHIMKFLKDWLDKAGVKHEEDRREEYIGDKLRVDSERNVNGVENRVILIFVVINGRYREFIIIIR	1.47
SEEEEDSLIAWKLYFEIEQTGDEKSLEHYMDPDTRYSQGEFRMHGREYTYHIIFRNRKRLGWDRVEVRLHSYEIINGRIKLDMRVHVNGVDINLLVIAFKFNGKWTIETVRIE	1.36
DELTEIMLRIAQLILTILLTGNEDHFKRLFDPNVRLTINGVDFVGREWIVHFMRNLTDELRIKDNKIEDIRVQGDKAKVDSRLDGEVDGQHMELRTSYVLIKIDGRWSVHSVEFR	1.26
DEDEKEAHELSRTIIESWLTGDEDSLSEMMDPHTRSDVNGRISHGREEASRVWHEEMRKLGVKHYEIKRVHSRVIDGRLDLHIYSRMHINGVSRSVELIFHIEKVNGRWLIKEVRVHLL	1.25
SEVHRDLRKAVDYFEEVFRTGDEDKMNNLLDPNVRWIVNGKDLVGREKAIRRYHEHRKTLGVNHFETRIDDQEVYGNKATLHGELTIHVNGRDIHHETRLNVSKINGVWYIESFIID	0.949
SEDSEHAVEYMRLLRESMHTGDEKSWEDMMDPNMRILINGKDLIGWEEFSEFLRRFDHWEIRHVEIKDTKLINGRIELKGRMDIRLTINGKETSHVRNVHILSLKVNGRWILKSIEIE	1.34
KEEEEKLERLAELVIELFLTGDWKTLHSLLDPHYRSEIDGRTVHGRESHQTLLEEILRHLRIRRVHIEEYRIIDGVAWIDSRITLEINGRTVDTHMHIHLEFFNGRLHSIRVEIH	2.47
DEERRRAKKFLEQFVRNVETGDEELHYHLADPHMKVKIGDKEFHGMEHWIEWFHRFGFDHMEIELKDIRVQGDKAHIDGRLHVDYNGREHSTNVELVVRKVNGRWRLHELRVE	1.28
DEEHEHQHEFAQIIMEMWKTGDWKTMFKLADPNARTIFEGRRLHGRELIWEFLFRLLKKLGVDHEKDRHSHNIGDKIHIHGEEEIGDKKVEVHIHIVIFNGRVKELEIRRREL	0.511
DNEDKLAEQMLKEILELWHTGDEEKWSNLADPNTRIHINGQESHGRDNFHKFWEDFHSTLGIDVLKFSLKDFRIQGDKSRVDVETKVKQGDKSEHYRTFLIFIIVDGRVKTIEIRIK	0.703
DEHEEHVHEITRLIIEAELTGDFERMKKMFDPNAKLILLINGREDTNHGMDFVRFWLKEHLERVDHRRVELKRWDVVNGVSHNDVTLHLEVGEWKITVKMHLHIVVVDGRLKSIKIEIR	1.4
SEEKKALDILLKTLIHTHQTGDEHTVRELVDPHVRIDFNGQELHGWEDARRFIVEMRLKHVDLRRVHHQGEKVELDGEVDGTYNGQEFHSKLHIVMRKVNGRWVFSQIEIK	1.17
DDMHRELRKLAEEIEKLIETGDEDRLRTLLDPHTRVEIGDWSDMGWDAIHKMIRHIRIDSVTIRREHFFNGRVHTDIEVDGTIGDKKDIRHVELEIVIVDGRVKEIKMIYV	2.13
TERDEHSRKMAHALVENFRTGDFETLHDLFDPRYLVILYIDGVDIRLHGREDFLRELKLINDRLGVDRVNLSVKHMEIQGDKVIMHFEEHQGDKTRRSEIRLEIINGRLRTSEWWIH	0.788
DEHEEMFTKLMRELIHIWLTGDEDILNHMADPNVLVEINGRREHGREALSRFLEKFKNVRIHLHSSTAIGEKSIIDTQININGKQIKVRVEIYMVDGKIKEIRLDIQ	1.29
DEDEKEIAKTVKELVHSLRTGDWEKITRMADPHVKIHVNGRELHGWEEMRRFEEEEFKRLGFKHRDVELKDFRYQGNFAHVHGNLVVEFNGVEEEIDQHIIILKVNGRWLITEIRHH	1.31
DEDDRLAEDLLRLIYHALQTGDEKHLEDFMDPHTQIIIEWNGVRDDTHGREEFSRKFHEQVRELRVHFHQNSIHVINGRAHNDGRLELNINGKIIKLKVILEIQVINGRIKEIRIIVR	1.95

Sequence	protease stability score
RELEESSKFFLKLIIEAFLTGDERTNSELADPNVRIHIGEFHYHGREEFSKLMEELVKRVKNATVINDIDHIEVQGEKIKMDGRLILIYNGRIFETRTSLIVVKIDGRWLIESVHVK	1.48
DETFKEQEKLIERLERVERTGDWKEWERLADPNVRMDIDGVEIIGMEMVTEFILREMRHLGVTRIRIEIKEIRVIGDKIRIDGQIQQGNKETRFILIVSKIDGRWRLEESYVH	1.06
DEREKDVEHWFQRLIEAQITGDEEEFDELADPNVLIEINGRELHGRDDFHKYLKRVDHFEIQHFRHHHRHIFDGKVYFNGHSELHVTVGDKRFRYEDEIHHISLKIDGRWILKSVHFA	0.635
DHREKEVHFMAKWIVEIFQTGDEDMWRHLADPDVRLDIVQGEKRDNNVGREVSEKTLKELRHHWGLERVEVRVDHIDHQGDKARVDGTVNINGVHFKTEIVIIVVDGRFKRVKYIIG	1.39
DEDEEEWHRFLELVHHFLRTGDWRRILDLIDPRALVHVGDKTFHGRHAIEHLLRHIHDRIPGMKQSLIIDHHDSQGDKIHLDVTLDLHFNGVEYHLRERTLELKINGKWVEKVREVD	0.821
DHREEESKRYLDDYSRAVTTGDEDRLTELLDPNTKLNYNGQEYHGMEKYKEVLHKILTEIRFESHHVETFRVVGNKLQLDTHIKGHINGKHIRLETHVDIVKINGRWLIDSVRFQ	0.29
DEFRRDALETHEDEIRDYLTGDWKSSKHLADPHARFVVGDKHYHGWHEMVRLVKENQEKFGIDHSEFRIHDSHVQGNKVIMDVEIHLTFNGKKIHTRSTILLVKINGVWLNTEIHID	0.072
DELEEEVMEFIRVFIHLLNTGDEDHLHELIDPNVRVEDENEEKHGRDTVEHMQRFFKNLRVTDLKVETFEVQGEFVHVHVDIEERVGDKHFHYKVLYIILKVDGRWLMHQVRFH	2.12
DDEEKSRDIAIEIFVHLLRTGDEHEMSKLADPHVKVNINGRELVGMEIFIEWIRRWSKEIRLHDVKVKDVRTQGDKIEVDGREDGIQGDKRKEVETSFFFRKYNGKWFIERMEFR	1.96
DEETEKDKFLSEVFRHSLMTGDWESELKYADPHARTVVNGRTIHGMRESWEHLKELLERLGAKYIKIRDMDSHIQGDKVLININGELHVGDKTIETRIHLIVRKVNGQWHIEELRFDFK	0.993
DKEEELSEIAHKIWIHELHTGDFESLEKNMDPHARIIQGDWHYHGRESVYHVFSRIVRMLGVKHIEIHSMEVINGQVHLDTRLHAEGHSRNTHVFFVKINGRWLSKEFEIK	0.711
SERHEESHERTRLLMHAHETGDFHTLQRLMDPDTRLLIIFNGREIHIHGMESAFKFFNEIRISHVTIHRVDIQGDKVNVDGEQEGQINGQRSRNRIHWDIDVIDGKIKRIIVEIR	0.993
DEEEKDIRKALEWFWESFKTGDEDSVRKMLDPDTRIIYGDKEHHGRENASRFIHELKRRMGIKHTEIRLNSMEVQGDKVSFYTILILRFDGREIRIETHIEARKVDGRWFTTSIEFH	1.42
TQEKREADHSNKLEEHSHQTGDERLLTELADPHVKIFVDGQELHGREEFLRWVEEAGVKHFHVDHVRYQGDKLFVHGHFNINGREREVRLIYRKVNGKWYLHQMDIN	1.23
DELEKLLKLAMEMSLKLFETGDEESLHRLIDPHVRMEIVQGDKFIELHGREDVVRAMKEFRKKFPNLKVELEDHDIQGDKVIWHSVIHVGDKELELIIISLKFDGRWVLESVELKHR	1.4
SEAEERAEKFIELLTKALLTGDWRMISRMFDPHVRIIIGDKESHGMESLRDTLEHLRFDHINTRIEHVQVQGDWVEIHIRVHMRITVDGKEFHVETQMHYVLIKIDGKWVVREIEIR	2.44
SEEEKLRKSLVELILHALHTGDWERLTRLLDPHVRWDQGDKVFHGREDFKRAWTELGVDHFQLRHIEMQGDKLHIKGEMHVNGRTIHVDLDIEIINGRIEHHRVDTK	1.35
DEHEHLMLKVVLISIRALLTGDEDRFEHLADPHTRVEVNGVERHGREEYRKWLEHIRIKHIEVEESRAQGDFVHLNGRLRVSYGDKRFETETRWDWIIVDGKLKEMRIRIN	1.26
SEEEEIIESFMKELRESHKTGDPTAIDRLADPNTRLLVNGKQHHGWEHILRFLEDLGANHIELEFRDSHLIGDKMHIHGQLVMHINGQRVTIKTHMILSKINGRWYLEHIELR	1.81
NHEEEHAKTLFEEWLRVLLTGDWKMFSHLADPHTRIHIGNKDIHGRDLFVELVIRELEEIRVILIVEELSAQGDKSRMRTRLIIRQGEFEHRTELRLEIVFVDGKFTSIHLRHK	0.599
SEEDVLHHELARIYWRDFVTGDEDSLRRLMDPEAKVNFDGRENHGREFYEEILRLFLEKFRGVRFEEHRSRFIGEFTHIDVRMHIDGKTHSLKVLVTVVNGKVHSIHIQLR	1.26
DDEKREMVEMLKIFIHNFLTGDWRTMEKLLDPDARFIINGQTFHGREWVRHSLHVFLHQFEHIHHIVIHDIDLQGDKVNIDGKLDGTVNGKRRLLDSHWHLRVVNGRVKEIEIHIH	2.12
SEEEEIYKRAHKFFADVFLTGNEKELEHMLDPNVRLHVNGQDHHGWTDVFRIFNFLGADHYDVKHLDIQGDKVDLHSEVDINGRTRRIIFHSLKVNGQWKITHVQVD	1.24
DEEERQLEEFLELLVEALRTGDWHTLMRMLDPNVKVHIDGKDIHGREEHIRLHIEQWERLGYERIEFRVRIDEVHFINGVVEVDYTQIDQFDGQRLQLRVRIFLLKFDGRWSIDKVVFR	2.46
DHQEESRSKFLNDILRIQRTGDFEKIYENVDPDVRIHIGDKEWHGREQATKVLTEWRVEHFDLKSMHIQGDKVHIHGHMIYNINGQERRSDIEIVLLKFNGRWFIHSMRID	1.67
